This series is described as follows: label from the status in PepcDB records.

In the case of “MSLVKKSSNVIAAVVSSVRTNFAQQILDGIQEEAHKNGYNLIIVYSGSADPEEQKHALLTAIERPVMGILLLSIALTDDNLQLLQSSDVPYCFLSMGFDDDRPFISSDDEDIGYQATNLLINEGHRQIGIAGIDQYPYTGRKRLAGYKKALKEANIAINQEWIKPGDYSYTSGEQAMKAFGKNTDLTGIIAASDMTAIGILNQASSFGIEVPKDLSIVSIDGTEMCKITRPQLTSISQDFFQMGVTGVQQIHQSVKNGSNRIVSQQFIPVNPVIRKSTARLGEGHHHHHH”, the protein production entry is reported as “not failed”. “MSLVNNFTVKKVRSSNLELLRLLSMFFVLVVHADFQALGMPDRTEMTILPLFSVFRIIIEAFAIVCVNSFVLLSGWFGINFHIKSLCNLLFQCAFFLIGIYTFTILIGIEPLSISGIKRCLMLTNNVWFVKCYLGMFIMAPILNAFVEKTDKRTFSTVLLSFFIFQTIYGWFSNGAPYFEKGYSAFSFMGLYLLARYVRIYQPSYTQWSKSKNLLMYISLSTFTALMLIITCYFDKVGYFCMFWTYTSPLVIAGALYLLLFFNRFAFQNKGINWIAASCFAVYLFHFFIWEYFMKPHIQQLAVTYNGISCLLVITGLLLTFFTAAILIDKIRLYIWNHFVSKYIS”: the protein production entry is recorded as “failed”. The value for “MSLWRLPMTLKTMTLAFAVTGLGVLAGSSPSVVQQRDGSQVVTPDEPKYNEDTGFYEYEKDGHKVQMNKDDVKTIEEVKLEHHHHHH” was “not failed”; that for “MSLYKQLLIAICLFVLIIFSGSFFVSLENSREQYNNQLHSHAQDAATALGLSLTPNIDDPAMVELMVSSIFDSGYFSSIRVRDLKTGNVTLERTASPDIPDVPLWFVQLVDLQPGAGEAIVMRGWEQAAKVEVVSHPMFAVTRLWRSSTATFLWLLGCGTLGVLIGALFLRRQLRPLDYIVDQSLAITRREFLSQPDLPNTPEFRRVAQAMNLMVSKLKTLFEEEAERSERLRQEAYQDPQTGLNNRRAFDMQFNDKLADEETAPGFLIMIRVQDLAGMNQRLGGQRTDALLASVGHILRKTQKQHTNTESLLARIRGGEFALFCPGLVDKEVYALIGELTRNIETLHLTGETDVSPVAQFGMVPFRPGDTAQSLFIQGDQALTRAESDTDTTAPYEIPLAGAEQVETDRHMWFNLLDPILEQERLQLFLQPVVACDDPSQVLHHKVLARIQDEQGNSIAAGRFLPWIQRFGWDTRLDQTMLREVLDYLRQHDGNLALSLSGTTVLNLHLLADLLAPLKHQPEVARRLILELDENQLPDSAQLETLIKLLNEHGCALGLQHFGGRFNMIGNLSQWGLAYLKVDGSYIRNIDQEGDKQMFIEALYRATNSIALPLIAERVETAGELKVLQEMGLQGAMGRLLGEPMPAVRA” was “failed”; that for “MSLYTFKELKRATKQDTVSLPKLKVALLGDTATQLLATAIKGEGILRNYNIELWEAEYNQVERQIMDPTSDYYQFEPDYTIIFHSTHKLLEKHSLVNSDLQNKLADDRLDFVRLLCEQGIGRVIYYNYPEIEDTIWGSYATKVQSSFTYQLTKLNYELMNISQAYPNFFICNLAGISAKYGRNFMFDSSVYVNTEIILSLDALPIISSRTIDIIAAIQGKFKKCLILDLDNTIWGGVVGDDGWENIQVGHGLGIGKAFTEFQEWVKKLKNRGIIIAVCSKNNEGKAKEPFERNPEMVLKLDDIAVFVANWENKADNIRTIQRTLNIGFDSMVFLDDNPFERNMVREHVPGVTVPELPEDPGDYLEYLYTLNLFETASFSEGHHHHHH” was “not failed”. Take “MSMESKSKRRSPPSSTLEEEVPGKTIHPEDPKITSKNFENPTKETSIQSPIKNSIKPSWNPEPKITRTSIWDIESAGGDSIQNDCQSECNVEDQGHEQEVTLETRIFSGTSDRIEPHRHYGVYLLRNRFDAIQLLTRNTSSSADDYGERRVISEYREMRCEFRVWSPFQSKLAAGIMGGVSDLHLQIGSKVLYLGAGFGRSVSHISDIVGDSGMVYAVEQIPWAGRQLTIMANRRSNIVPIVEDATMPYKYRYEVPACIDIIFADLPPSVLIRALMLNARHFLNPGGHFVAYLHSPTSQGVVFNKDSFAAERRLLKEKQLEPKEMVLLEPFKAGYAFVVGVYIRKDVSL”: the protein production result was “failed”. With “MSMNDTYQPINCDDYDNLELACQHHLMLTLELKDGEKLQAKASDLVSRKNVEYLVVEAAGETRELRLDKITSFSHPEIGTVVVSES”, the protein production result is on record as “failed”. Consider “MSMNSEPTPAEAFFLEGNRLLAASECRAAEACFREALALAPDFAEAHANLGMLLDQEGMAAEAERQYRLALALNPRLGHTHSNLGVLLANQKRFEEAESAYLSAIELEPDSPAAWSNLGVLQACRKQEREAEESYRTALRLDPDYHRASFNLSYLLLRQGRFDEGWSLLESRNRRWFARLEEHLPCPRWRGEDLQGRSLLIGLEAGHGDMIQFCRYAPLLKDRGAARITLVCHVALKDLLKTLDGVDTVISFDEILPDDAWDFWTPAMSIPCYCRTRLDSIPARIPYLHADPGLAEQWAAMLEREWAGPEMRIGLAWKGNPHFENDGDRSLPHLKTLEPLGAVAGVRFFSLQKGAGEEEAAQPPAGLPVVNLMRHIAGFADTAALVANLDLVITVDTAVAHLAGALGTECWVLLPEYRTDWRWLTGRTDSPWYPGVMRLFRQPRVGDWETVVAEVGEALRLFAARPRSPRGTR”, for which the protein production entry is recorded as “failed”.

For the sequence “MSMVVNSSDQAITMESLGISGHCDDVFCNELTATVIGEMTKRPTRLDIPIGVDGFVAPISSSADVTVTSREECREVEREGYEDTVNNEEISKPKSMKLLAHAGDDESIKRQENEDDDGRTTVDDDDGRGRINVSRLKALLMITTRE”, the protein production entry is given as “failed”.

In the case of “MSNCWKNVLVKPACTLLDALEIINDEALRVVLVVDESDSLLGVVTDGDIRRGLLRNLPLTADIAQVMNTTPYTAAIDTPRDELIAIMESNDILSIPLLDNGKVVGLETLHHALSTPVYENPVFIMAGGFGTRLRPLTDHCPKPMLKIGDKPILETVIRNFIKAGFINFYISTHYMPELIHQHFGDGSTLGVKITYVHEQSPLGTGGALGLLPKELPKDLPLIMMNGDVLTKVDFQRLLEFHTEHDADATMCVREYDYQIPYGVIKGEGNRITSMVEKPIQRFFVNAGIYVVSPVVIQSVPENHHIDMPTLLEQHMNKRNNVLMFPIHEYWLDIGRMDDFNRAQTDIYTLGL”, the protein production result was “failed”.

Turning to “MSNDKTPNSPESTPSTPADEVLDGLLAELSPEASAEPNPADDSGNPFTTIFKSVTDKATELGSAATEGLSNLQESATELAAETKEKFGNFAEAHKDDLGQLLTSAQGKAASFGEAVSDRFGELGESATESFGNLQEGAAGFAAGAKEKFGDFAEASQEKLSEIAETTQDKAASFGEAVSDRVEGLRGSAAEKLGNLQEGASELAAGAKEKFGDFAEASQEKLSEIVETTQGKAASFGEAVSDRVEGLRGSAAEKLGNLQEGASELAAGAKEKFGDFAEASQEKLSEIVETTQGKAASFGEAVSDRFGELGESAAEKLSNLQEDASEFAASAQEKLSTFTNARQEELGNLTKSAQSDVQDTANTVSEQLEQAPEAVSTAADSLKGAQEKLEAAVVASQSVAEKLKPAEVQSQSSLQLASESPSPSFFGRLLRKIKGFFRKLFG”, the protein production result is reported as “failed”. With “MSNGGSFTVEKLSLYGNPNIGVYLTASDSYVLAPDDIGADDVRTISEVLGVAMERVVRLRVLGMRLVGVLTTGNSRGILLPEGVDREVELVRKALEGVEVGIVPTRSNALGNVIVCNDRACLASPGLEKEALKTVSDTLGVEVVEGSVAGVYTVGSAIVVTNRGGLAHPDASEEELKFLSDVFKVPFEAGTINFGVEFVRTGLVANSYGALVGEDTTGPEIARIQVALGGGVK”, the protein production entry is on record as “failed”. The value for “MSNHEEKKQHVALSSVAASLLLTAMKLVVGLMTGSIGILSEAAHSAIDFGAAALTWFAVRISDKPADKKHHYGHTKIESVSALIETGLLILTSVWIIYEAVTRLLSGTTEIEVTWYAIAVIIISIIVDISRASALKKVAKETKSQALEADALHFTSDIVSSAVVLAGLGFVALGMHWADAVAGIFVAVLVGKAAWELGRKTIDVLIDTAPEGLSEQIEEIVVNAPGVIGINKMRIKPAGGPFVFIDLTISVSRTLPQEKVVAICAGVEQRLKAALPDSDITVNARPVVLDSETVTERIHTIGLNHGLHAHNILTSLSGDHKQITFDVEVDSRLTIRQAHDAVTELENELHREFNEEIDLCIHLDPINSEERNVQPADPENEARITALIRQAASTIPGILNVHALKIHVLSYNKLCITLHCGFDDNTVLADVHPLTSRLECLIYRDIPETSRIIVHAEPVNAGD” was “failed”; that for “MSNHQKRLSVPNSWPVERKTATFTVKAGAGPHGESGVPLLIVLRDVLGYADNRKEARYALNEDNVLINGKAISDEERPVGMFDILAFTEREEYYRVFPGEGGRLALTAIDPDAAQSKLGKIVTKTHVSGGDVQLGLHDGETLIVEDDQTYDAGDSIVVGNEDGEVVAHFEYEEGALVTAVDGAHAGEVGEVEEIQVTPGSAQNNVIVSQDEGEGFETVEEYVVVIDENFTGDDELEHHHHHH” was “not failed”. In the case of “MSNKIVTLEINLEPSDNRRLASLCGPFDDNIKHLERRLGVEINHRSDHFTIVGKPHTSAAALDILKTLYVDTAPVRGEIPDIEPEQIHLAIKESGVLEQNTESSIAHGKEVFVKTKKGVIKPRTPNQAQYLVNMVTHDISFGIGPAGTGKTYLAVAAAVDALERQEIRRILLTRPAVEAGEKLGFLPGDLSQKVDPYLRPLYDALFEMLGFERVEKLIERNVIEVAPLAYMRGRTLNDAFIILDESQNTTVEQMKMFLTRIGFNSRAVITGDVTQIDLPRGAKSGLRHAIEVLSEVDDISFNFFQADDVVRHPVVARIVNAYEKWEAQDQKERKEFEKRRREERDAKLLEAAKAELSAQVAATKE”, the protein production entry is listed as “not failed”. “MSNVIASLEKVLLPFAVKIGKQPHVNAIKNGFIRLMPLTLAGAMFVLINNVFLSFGEGAFFYSMGIRLDASTIETLNGLKGIGGNVYNGTLGIMSLMAPFFIGMALAEERKVDALAAGLLSVAAFMTVTPYSVGEAYAVGANWLGGANIISGIIIGLVVAEMFTFIVRRNWVIKLPDSVPASVSRSFSALIPGFIILSIMGIIAWALSNYGSNFHQIIMDTISTPLASLGSVVGWAYVIFVPLLWFFGIHGSLALTALDSGIMTPWALENISIYQQYGSVDAALEAGKTFHIWAKPMLDSYIFLGGSGATLGLIIAIFLASRRADYRQVAKLALPSGIFQINEPILFGLPIIMNPVMFIPFILVQPILAAITLVAYYLGIIPPITNIAPWTMPTGLGAFFNTNGSVAALLVALFNLAVATLIYLPFVVVANKAQNAIEQEESEEDIANALKF”: the protein production entry was “not failed”. On to “MSNVSALPIQPETTPSGGGSVRDRVSPQEWEVRVKLAAAYRLAALKRWTDHIYTHFSARVPGPDEHFLINAFGLLFDEITASNLVKVDIDGTIVDDPTGLGINYAGYVIHSAIHAARHDLQAVLHTHTRDGIAVSAQKGGLLPISQHSIAFSGRVAYHGYEGIALDLSERERLVADLGDKSVMILRNHGLLTGGVSVEHAFQQLHALEYACNIQIAAQSAGNDELVFPPQEVIARVEEQAKVIKDGHGPGVARHWNALIRELERSGTDYRE”, for which the protein production result is “failed”. Then “MSNVVWTNFGRSSPDRMRARGGKLMAEPDFEAQLTRMFAQAPSFPDAALFNAEVMAKLDRGWAMRRMFIAVAGTGAGLIGAFQIFGSRFSNELAQLSREGSHGLETEINGGWAKLTALLSTPSSAEAVWLAAGLAVVALAFAVTRLVEDF”, with “failed”; and “MSNWNLDNFDNLHSSLAESAYNSRPNSFPELFETDSVTEVKFSQPSEDNKGQITQGGTNLPNDGIVYLQPDKSLKSIDENVKVLIPDVNGGYHTEHYVTHSYQKGVLTDDKAGFNAYYLSDTEKIDSTTKHTYLAIRGSDGIGLDTLNDWVSNNAMFAVSNKYIPQAKLANKAMKEKIAELKGKAPGAIIDVTGHSLGTIVSSQAVVNLSYAELENVGQVVLFDGPDVSRSLEKMEGISAKKIQEAGKHVTYYVNPFDIVSMLNREKP”, with “failed”.

The values are drawn from a protein production outcome set (Wang et al. 2014).
